Bridge positions count the residues as written; N and C are the ends. Square brackets hold non-standard residues; d marks the D form. Ends that are not written are not given here.
Legend:
[1] = molecular target: T1, dried human collagen type I (Homo sapiens, UniProt P02452+P08123); assay: Dried collagen assay (DCA), human collagen; assay type: binding; settings: 5 μM peptide in PBS pH 7.4, 2 hours at room temperature; percent bound
T1 construct: Acid soluble human collagen extracted from placenta; purchased Sigma C7774; host or cells: human placenta (tissue extract)
T1 sequence (P02452 162-1218 limits assumed): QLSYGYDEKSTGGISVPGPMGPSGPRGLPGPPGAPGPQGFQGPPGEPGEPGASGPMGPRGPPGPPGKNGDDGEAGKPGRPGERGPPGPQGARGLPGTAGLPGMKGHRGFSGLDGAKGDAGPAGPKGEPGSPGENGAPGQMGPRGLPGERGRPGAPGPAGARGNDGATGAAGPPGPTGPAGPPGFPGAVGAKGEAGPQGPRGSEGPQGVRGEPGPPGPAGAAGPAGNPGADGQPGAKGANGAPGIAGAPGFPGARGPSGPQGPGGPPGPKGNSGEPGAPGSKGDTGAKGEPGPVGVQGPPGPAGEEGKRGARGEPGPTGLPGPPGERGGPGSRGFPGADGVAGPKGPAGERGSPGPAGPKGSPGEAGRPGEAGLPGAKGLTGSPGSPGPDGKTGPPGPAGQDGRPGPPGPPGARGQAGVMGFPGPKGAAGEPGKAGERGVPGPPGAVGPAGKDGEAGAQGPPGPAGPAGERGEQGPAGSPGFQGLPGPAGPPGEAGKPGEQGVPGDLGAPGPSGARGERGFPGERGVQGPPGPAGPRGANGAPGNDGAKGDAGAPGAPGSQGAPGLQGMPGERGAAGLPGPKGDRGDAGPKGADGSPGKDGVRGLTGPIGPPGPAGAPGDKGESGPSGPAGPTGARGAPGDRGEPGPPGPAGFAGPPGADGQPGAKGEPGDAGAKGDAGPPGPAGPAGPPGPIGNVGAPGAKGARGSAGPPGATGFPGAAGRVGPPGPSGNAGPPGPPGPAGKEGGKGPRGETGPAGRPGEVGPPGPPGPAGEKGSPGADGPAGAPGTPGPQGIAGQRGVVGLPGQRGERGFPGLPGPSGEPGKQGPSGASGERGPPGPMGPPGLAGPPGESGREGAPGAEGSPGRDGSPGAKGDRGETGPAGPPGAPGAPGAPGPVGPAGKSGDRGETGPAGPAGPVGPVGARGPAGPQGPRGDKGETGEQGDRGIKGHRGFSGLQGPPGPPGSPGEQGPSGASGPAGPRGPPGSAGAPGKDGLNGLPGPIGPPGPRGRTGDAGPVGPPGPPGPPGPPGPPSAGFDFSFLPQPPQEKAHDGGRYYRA
T1 sequence (P08123 80-1119 limits assumed): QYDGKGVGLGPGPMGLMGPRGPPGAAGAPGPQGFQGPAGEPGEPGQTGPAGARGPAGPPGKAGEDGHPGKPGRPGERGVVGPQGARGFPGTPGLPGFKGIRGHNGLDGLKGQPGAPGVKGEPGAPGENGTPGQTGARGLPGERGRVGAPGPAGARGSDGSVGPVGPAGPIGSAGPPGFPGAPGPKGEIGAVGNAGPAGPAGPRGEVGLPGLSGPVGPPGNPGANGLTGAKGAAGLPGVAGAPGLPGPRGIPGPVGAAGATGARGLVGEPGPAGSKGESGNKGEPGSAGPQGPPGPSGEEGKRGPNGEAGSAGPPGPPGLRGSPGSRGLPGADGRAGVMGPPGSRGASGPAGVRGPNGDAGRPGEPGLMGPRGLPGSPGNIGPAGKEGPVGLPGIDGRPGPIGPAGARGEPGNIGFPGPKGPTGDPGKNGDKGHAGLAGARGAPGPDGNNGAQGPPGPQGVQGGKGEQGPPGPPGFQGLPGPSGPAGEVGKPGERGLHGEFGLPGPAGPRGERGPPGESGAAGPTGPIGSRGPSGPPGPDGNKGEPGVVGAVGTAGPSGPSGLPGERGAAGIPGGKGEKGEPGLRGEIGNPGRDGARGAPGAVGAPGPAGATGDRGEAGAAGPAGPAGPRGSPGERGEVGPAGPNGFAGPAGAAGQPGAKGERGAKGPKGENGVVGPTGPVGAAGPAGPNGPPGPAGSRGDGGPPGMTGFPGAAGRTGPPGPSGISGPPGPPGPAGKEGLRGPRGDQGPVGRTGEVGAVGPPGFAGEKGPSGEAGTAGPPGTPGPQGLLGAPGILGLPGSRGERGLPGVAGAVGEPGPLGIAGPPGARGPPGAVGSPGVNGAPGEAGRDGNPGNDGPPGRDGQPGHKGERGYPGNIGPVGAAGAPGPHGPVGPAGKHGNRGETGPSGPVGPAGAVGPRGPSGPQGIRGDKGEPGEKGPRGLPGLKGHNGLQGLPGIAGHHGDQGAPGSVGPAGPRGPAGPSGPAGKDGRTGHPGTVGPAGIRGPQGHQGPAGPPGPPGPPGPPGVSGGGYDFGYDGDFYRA
Description: Acid soluble human collagen extracted from placenta (Sigma, cat# C7774, lot# 083K375) is dissolved in 15 mM HCl (3.5 mg/ml) by vortexing and gently shaking for 3-4 hours at 4° C. The acid soluble collagen is dissolved against PBS, pH 7.4 (three buffer exchanges are used). […] Percent gelation (fibril formation) of the collagen is determined by incubating 10 μM collagen (3.3 mg/ml) at 37° C. for 6 hours.

[2] = molecular target: T2, dried rat collagen type I (Rattus norvegicus, UniProt P02454+P02466); assay: Dried collagen assay (DCA), rat collagen; assay type: binding; settings: for % Collagen Binding, Dried Rat: 5 μM peptide in PBS pH 7.4, 2 hours at room temperature, percent bound
T2 construct: Rat collagen (acid soluble, type I, rat tail, Upstate USA, Inc, cat# 08-115); purchased Upstate USA, Inc 08-115; host or cells: rat tail (tissue extract)
T2 sequence (P02454 152-1207 limits assumed): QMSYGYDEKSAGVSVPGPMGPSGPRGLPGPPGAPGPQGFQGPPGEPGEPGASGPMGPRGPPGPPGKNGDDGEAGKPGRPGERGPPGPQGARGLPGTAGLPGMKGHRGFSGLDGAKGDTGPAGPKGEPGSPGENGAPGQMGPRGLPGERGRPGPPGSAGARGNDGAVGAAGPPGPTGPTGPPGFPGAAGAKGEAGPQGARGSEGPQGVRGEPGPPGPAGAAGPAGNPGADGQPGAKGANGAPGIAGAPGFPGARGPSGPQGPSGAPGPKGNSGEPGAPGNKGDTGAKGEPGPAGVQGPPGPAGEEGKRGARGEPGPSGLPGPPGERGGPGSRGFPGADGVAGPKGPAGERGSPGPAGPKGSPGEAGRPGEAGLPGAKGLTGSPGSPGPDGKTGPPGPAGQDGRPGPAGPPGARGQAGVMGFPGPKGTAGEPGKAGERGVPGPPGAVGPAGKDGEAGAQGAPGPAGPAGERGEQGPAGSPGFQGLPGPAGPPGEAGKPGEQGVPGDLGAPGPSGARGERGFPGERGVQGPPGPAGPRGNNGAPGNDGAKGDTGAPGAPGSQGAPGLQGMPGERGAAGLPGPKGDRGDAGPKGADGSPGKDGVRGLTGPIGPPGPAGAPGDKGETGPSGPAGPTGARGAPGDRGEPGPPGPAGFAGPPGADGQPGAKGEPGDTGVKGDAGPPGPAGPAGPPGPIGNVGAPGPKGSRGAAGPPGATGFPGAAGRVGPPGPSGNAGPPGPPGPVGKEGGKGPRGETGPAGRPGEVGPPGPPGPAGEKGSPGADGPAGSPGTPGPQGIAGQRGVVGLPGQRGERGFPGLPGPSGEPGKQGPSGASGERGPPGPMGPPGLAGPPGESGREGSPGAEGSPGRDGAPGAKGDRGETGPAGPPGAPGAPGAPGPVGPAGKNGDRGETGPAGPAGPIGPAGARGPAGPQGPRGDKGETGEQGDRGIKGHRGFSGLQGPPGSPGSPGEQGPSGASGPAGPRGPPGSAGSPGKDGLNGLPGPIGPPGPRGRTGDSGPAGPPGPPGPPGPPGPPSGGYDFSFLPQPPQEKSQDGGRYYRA
T2 sequence (P02466 86-1125 limits assumed): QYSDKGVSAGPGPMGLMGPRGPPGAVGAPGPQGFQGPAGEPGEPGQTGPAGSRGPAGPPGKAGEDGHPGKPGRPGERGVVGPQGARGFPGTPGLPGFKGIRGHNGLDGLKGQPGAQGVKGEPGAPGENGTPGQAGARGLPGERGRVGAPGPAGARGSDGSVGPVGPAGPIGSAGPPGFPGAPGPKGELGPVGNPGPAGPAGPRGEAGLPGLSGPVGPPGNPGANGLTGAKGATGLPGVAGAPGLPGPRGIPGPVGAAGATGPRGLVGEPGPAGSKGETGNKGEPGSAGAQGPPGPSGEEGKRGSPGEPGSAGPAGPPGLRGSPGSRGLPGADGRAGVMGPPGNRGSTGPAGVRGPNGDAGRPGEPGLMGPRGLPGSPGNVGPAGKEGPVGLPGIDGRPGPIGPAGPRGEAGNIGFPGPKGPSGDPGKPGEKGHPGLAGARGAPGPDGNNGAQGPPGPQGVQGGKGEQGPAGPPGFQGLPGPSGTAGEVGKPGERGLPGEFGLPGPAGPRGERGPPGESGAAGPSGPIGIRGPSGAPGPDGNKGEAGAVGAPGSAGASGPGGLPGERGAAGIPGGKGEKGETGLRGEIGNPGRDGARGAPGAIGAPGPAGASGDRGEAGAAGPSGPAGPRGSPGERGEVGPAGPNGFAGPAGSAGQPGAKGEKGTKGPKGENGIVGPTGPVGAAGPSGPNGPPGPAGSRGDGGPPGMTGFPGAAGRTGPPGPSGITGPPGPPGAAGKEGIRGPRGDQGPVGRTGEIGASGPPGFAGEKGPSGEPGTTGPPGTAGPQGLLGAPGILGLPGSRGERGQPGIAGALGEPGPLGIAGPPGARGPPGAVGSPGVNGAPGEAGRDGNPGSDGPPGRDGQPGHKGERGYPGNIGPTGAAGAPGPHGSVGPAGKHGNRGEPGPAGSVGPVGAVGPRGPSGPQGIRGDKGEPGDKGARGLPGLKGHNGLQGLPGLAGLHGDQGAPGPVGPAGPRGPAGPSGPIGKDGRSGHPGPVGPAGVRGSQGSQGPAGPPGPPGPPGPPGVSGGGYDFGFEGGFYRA
Description: Peptides identified using the phage-display protocol were screened using dried collagen assays (DCA) as described in A.-D. below.
For the final assay, a 1:10 volume of 10×PBS (100 mM NaH2PO4, 1.5 M NaCl pH 7.4) is added to the collagen solution (final 1×PBS) and incubated at 37° C. for 2 hours.
An additional 90 μL is reserved in a HPLC glass vial as a measure of the total concentration.

[3] = tested on: perfused Langendorff rat heart; assay: Equilibrium binding to perfused Langendorff rat heart
Description: After deep anesthesia with pentobarbital (80 mg/kg ip), the chest cavity of a male Sprague Dawley rat (300 g) was opened, retracted and the heart was removed immediately and placed in an ice-cold normal Krebs-Henseleit (K-H) solution (NaCl, 118 mM; KCl, 4.7 mM; CaCl2, 2.5 mM; MgSO4, 1.2 mM; KH2PO4, 1.2 mM; NaHCO3, 25 mM; glucose, 5.5 mM). A K-H buffer filled 20 Gauge needle was inserted into the apex of the heart penetrating into the bottom of the chamber. This was attached to a pressure transducer used to record and monitor heart function. Perfusion pressure (60 mmHg) was monitored using a second transducer. The heart was perfused at a constant flow rate of 10-12 mL/min with 37° C. Krebs-Henseleit buffer saturated with a mixture of 95% O2 and 5% CO2 gas. The heart was paced at 300 beats/min.
Two peptide test articles, a high collagen binding peptide (SEQ ID NO: 144) and a low collagen binding peptide (SEQ ID NO: 173), are compared to GdDTPA. The appropriate test article was added to the K-H buffer solution to a total concentration of either 3 or 30 μM. Also added to the K-H buffer was a radiotracer analog of each peptide or GdDTPA. For the peptides, the radiotracer was an aliquot of the appropriate I-125 labeled peptide derivative (see Example 5 for protocol). For GdDTPA, the tracer added was Tc-99m labeled DTPA. The amount of radioactivity added to the buffer solution was 1-5 μCi.
The heart was perfused for a period of 10 minutes and the perfusion solution was recycled through the heart. The total volume of K-H buffer used was 50-60 mL. After 10 min, the heart was removed from the apparatus and any connective tissue was removed. The heart was opened, fluid in the chambers drained, and the interior blotted dry with filter paper. The heart was then weighed and the radioactivity in the heart measured with a Packard Cobra 5003 Gamma Scintillation counter. An aliquot of the K-H buffer was also weighed and counted. Studies were performed at least in duplicate.
The dual peptide gadolinium tetramer (Compound ID 803) was compared to GdDTPA. Compound ID 803 and GdDTPA were added to the K-H buffer solution to a total concentration of 3 μM. Also added to the K-H buffer was a radiotracer analog of Compound ID 803 or GdDTPA. For Compound ID 803, the radiotracer was an aliquot of the In-111 labeled compound. For GdDTPA, the tracer added was Tc-99m labeled DTPA. The amount of radioactivity added to the buffer solution was 1-5 μCi.

Substance | Dried Human Collagen Binding [1] | % Collagen Binding, Dried Rat [2] [%] | also measured
2 (WGWCEWAQNNCWNY) [compound 2] | 14% | – | –
3 (PWWCHEMPSMCFGF) [compound 3] | 2% | – | –
13 (QWTCSGDEYTWHCNYE; disulfide 4-13 (inferred)) [compound 13] | 78-85% | – | –
36 (SWSCGGDHNAWKCQYS; disulfide 4-13 (inferred)) [compound 36] | 7% | – | –
37 (LWNCHGTDANWKCVLN; disulfide 4-13 (inferred)) [compound 37] | 7% | – | –
38 (GWSCHGDAADWPCQWS; disulfide 4-13 (inferred)) [compound 38] | 6% | – | –
39 (GWQCSGDASVWNCDWI; disulfide 4-13 (inferred)) [compound 39] | 6% | – | –
65 (KWECVHTKGEWYCETK; disulfide 4-13 (inferred)) [compound 65] | 7% | – | –
74 (QWHCTTRFPHHYCLYG) [compound 74] | 67-69% | – | –
112 (AKACSVHDEFGCLIS; disulfide 4-12 (inferred)) [compound 112] | 9% | – | –
113 (FSECVWVNAYQCEYF; disulfide 4-12 (inferred)) [compound 113] | 3% | – | –
130 (WWACQKGRHDWEKCRWL; disulfide 4-14 (inferred)) [compound 130] | 32% | – | –
137 (YHACYQAGCWAW; disulfide 4-9 (inferred)) [compound 137] | – | 7 | –
142 (QWTCSADEYTWHCNYE) [compound 142] | – | 6 | –
147 (QWTCSGDEYTAHCNYE) [compound 147] | 5% | – | –
159 (YHACYQAGCWIW) [compound 159] | 7% | – | –
163 (YHACYQAGCWIW) [compound 163] | – | 53 | –
165 (QWTCSGDEYTWHCNYE) [compound 165] | 2% | 4 | –
166 (QWTCSGDEYTWHCNYE) [compound 166] | 2% | 3 | –
167 (QWTCSGDEYTWHCNYE) [compound 167] | 4% | – | –
168 (QWTCSGDEYTWHCNYE) [compound 168] | 3% | 2 | –
169 (QWTCSGDEYTWHCNYE) [compound 169] | – | 4 | –
171 (QWTCSGDEYTWHCNYE) [compound 171] | – | 6 | –
173 (QWTCSGDEYTWHCNYE) [compound 173] | 5% | 4 | –
174 (QWTCSGDEYTWHCNYE) [compound 174] | 5% | – | –
175 (QWTCSGDEYTWHCNYE) [compound 175] | 2% | 2 | –
176 (QWTCSGDEYTWHCNYE) [compound 176] | 2% | 2 | –
190 (GQWTCSGDEYTWHCNYE) [compound 190] | – | – | % Binding Collagen I Rat ([2]; chelate conjugates): 5%
Q W T C S G D E Y T w H C N Y E (QWTCSGDEYT[dW]HCNYE; disulfide 4-13 (inferred)) [SEQ ID NO. 173] | – | – | Heart:Buffer ([3]; buffer 3.0 μM): 0.37 ± 0.08; Heart ([3]; buffer 3.0 μM, 10 minutes recirculating perfusion): 1.1 ± 0.2 nmol/g; specific heart uptake (in words) ([3]; heart concentrations compared with GdDTPA): no specific uptake
